Results from the domain aggregation screens of Martell et al. (2025).

Assay: soluble fraction after stress (log2 fold change); higher = more stays soluble; pooled small domains, quantitative proteomics
Conditions: stress: 75 degC
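Also: 20 min heating vs room temperature control held 20 min.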

Sequence	soluble fraction (log2)
HMENNIILNYVKDNLNITEKDAKDLIELLGSDYYHIKNETNKIAAFLDGQPYSFEKIKNLISIDKEY	0.0409
HMENPLETYYSQWVSAIKREHPEASFVKDTDGKYYVEGLTKNRLAVIYENPHLVRLVNATTNLHVE	-0.567
HMENPVPVIITDQNFQPLLWKNVGVPTDTIFHELSPENQKKLENLMKTMVQMPLTDDGRISGYAYYSK	0.0767
HMENQFNDWSLTPSEKEVALFMLKGLSTQEIAAARNTKEKTVRQQASAVYAKSQLDGRYALAAWFFEDI	-0.702
HMENQMIIYIDENDENKRLDSYLSEITPDYSRSKIQNFIKNGNVTVNDSNKKPSYLLKENDKISFELPQQ	-0.0893
HMENSLLSESLAKIYIKTHRYERAYEILSRLSLAVPEKNAYFADQLRFLRKVMLAESFRKQHS	0.0207
HMENTSPMTPEQSKALMAYLTKRHGDSREAYLSELSQFFGRPLSSSRELTKADVSEFLNAIN	0.0561
HMENVVESIYNKMVESITNGQWAAGSKIPTENELAKTYQVSRSSVRQAISRLKALGLLESRQGSGTVIKK	-0.0436
HMENWMPNLVNQDKRLAINTLRELGFTEEAGNLVIREETSEDVTKDYVISTDPVAETDLADVEKVTLVVSS	0.116
HMENYIEQLTAKNSEYIHVVTRELVKIGKSDEEIKAILSDILPQIVAAQDQRVLAKDILGTPSEFTAKYAP	0.462
HMEPDDLTVIKGIGPVAAKDLNEQGIITFAQLAKLSDKDVAKIDEHMPFSADQIKDWREQAKELAK	0.739
HMEPDEIVLDHRKRIENSDAIVLIAPIWNFRMPAILEGWIDKVLAPPWAFKFKKLFGNYGYPVGNLKG	0.0917
HMEPDTVVVPNFVGKVYASEIEGNEAYSDFTFVIKEGNDPEQDIGVVLKQTPNEGLEVKKGKEITLTINQ	0.031
HMEPEAKIDFILKAAQKRLGLYGYEKTTMQEIAADINMSKAALYYYFPDKESLFKAVVENEQEEYFH	-1.97
HMEPEDVIAMERYLASGAIKGIGVTLAGRIIKKFQKETFHIIEEEPERLSEVKGISEKLAREIYQQFTQK	-1.11
HMEPERRHLEVPAEAEGERIDRFLASQLENLSRSRIQALIKAGYVRNRRGTIEDPGLRVKPGDAFVVDLPP	0.354
HMEPEVEITYFKPDERKAGGAYVTVTGAVIKVDDFERLITMQDGTKIPMDDILSIDGELFLS	-0.502
HMEPGEVQVDGLRFIAQPQERNDFEVALEQFRAGNFAAARKSFAAFINTYKQSGYLPSARFW	0.0135
HMEPLKLGDATGDGKINLQDVLEMQKHMAGILVLKGKFFTAADVNGNGKIELVDVLSVQKYLAGVTAEV	0.11
HMEPLVSKVFQVSYQKTADLVALIKSEDSKLLSARGTLISDERTSQIFVQDTPTRLERISMIVNGL	-0.889

Sequence	soluble fraction (log2)
HMEPMNMYSSIKKVIGVVSGKGGVGKSLVTASLARMMRAKGYHVGIMDADITGPSIPKMYGLHEMA	0.395
HMEPVDYEALRKELMQKVMGLFTQSRDVGIQILSSFGAKKLSDVPDDKLVAFAASVDKALAG	-0.193
HMEPVQFIQFKIPDGHPWSGQLLREVRLPPGTLVVLLKHDGKNIIPNGETPLLAGDSVILSAASPT	-0.567
HMEQAAQPQTGFDPRRLKAGDAVHLLALDQRGVLLEDPKPGAESAPVSVGVAGVRVVVPLREMEALPAG	0.0201
HMEQEVLDLLFDAIRSLPEKYRRLFDMSFEQGLKNAEIAALLHVSESAVKKQKASMIQQLRDDLLRKTGKD	-0.745
HMEQFDFTILRELRKRAGLSIGEVSAESGVSAAVISKLERNRTRAELDTLYRLARVFGITAAELLNLAEA	-2.19
HMEQIETIFLSAAPYARTHIIHLLETSELFRDKYLTIVETSNGLLIYTEDKNRLLGILNSLT	-2.51
HMEQIFTELIMDGRVLGENLHRMGVDETWLLRQLRQQGYHSAREVFLAVADANKQVAVYPVS	-0.381
HMEQINVTIQTEKGRIDKVLSEHLPNHSRSQIQQWLKEKHVTVNGETVRANYKVTAGDEIVVTIPEPEV	0.546
HMEQISDEDTLRKMVNEVLDNNQTQLEQYKSGKTNLIGFFVGQTLKKSAGKANPSIVNKLVNEEIYI	0.141
HMEQISIETRIEQLLARLSETEASGFEELFADTSSRADLITTFLALLEMIRLKLVRVFQDGSFGPIRIYKR	-0.572
HMEQKISVPALVGRDIEEILADTEVTGNFTIKEADKRVASNRPVGEVLEQDPGTGESAVKGTIITVTVSAG	-0.0542
HMEQNTKAYEQVRTLTDLLNQYRHEYYNLSAPSVSDQEYDRLFDALAALEKQTGIVMSNSPTQTVG	0.0212
HMEQPAPSTTVDILGGGRAALVTANRELGLALADDEIDYLTDSFTQLGRNPVDVELMMFAQA	-0.00398
HMEQSLNTYSIRTVKESLFLAETKNLNKIEKLVEGIEGRLTLSEALVLFSDKLNAMSVLSHVNANT	-0.154
HMEQTIKKYVNVATLNFRSGPSTSYSIISTLSKGTKVEVISTTNNWSKIIYDGKIGYVSSEYLSKSI	-3.07
HMEQVPEAVGRRVRQARSDRGWTLDQLAERSEVSRRMIVNVEAGTSNASIATLLRLATALNVGLAELVA	-1.61
HMEQVVFNGTGRRKSSIARVRIMSGKGNITVNGKALDEYFGEETLKVIVRQPLTVTDTLDKYDVIATVK	0.0911
HMEQYYVFFAGGMTIGTKEWYESILPENIATSYDDILEGKMMPASLEQIEFYNSHKDYDLYHLFYML	-4.25
